“And” between values parts separate entries of the source, which are not always exact repeats. Identical values can stand only once.

The test system of one test is HUVECs. The test can be described thus: Surface binding of iodinated S100A8/A9 to endothelial cells. Set-up: species or system human. On the procedure:
Human umbilical vein endothelial cells (HUVECs) were grown in Endothelial Cell growth Medium (Cell Applications) at 37° C. in 5% CO2. Cell staining and Western blotting were performed to confirm expression of mAbGB3.1 antigens. HUVECS at passages 3-4 were used in the binding assays. Purified proteins were radioiodinated using Na^125I and Iodo-Beads Iodinating Reagent as per the manufacturer's protocols. Unbound label was removed on a Sephadex G25 column, followed by concentration of the void volume fractions using Centricon10 concentrators.
Cells grown to confluence in 12 well plates and activated with 1 μM PAF for 4 hr. Activated and unactivated cells were washed with cold HBSS and then incubated with 4 nM to 80 nM ^125I-S100A8/A9 in 1 ml of HBSS, or 20 nM labeled complex in the absence and presence of modulators at 4° C. for 2 h. The reaction was stopped by rapid removal of unbound label, and the cells were washed thrice with cold HBSS. They were solubilized in 1 M NaOH followed by addition of an equal volume of 1 M HCl, and the radioactivity associated with the lysates was measured using a gamma counter. […] Panels 2 and 3 show the results for HUVECs incubated with 20 nM labeled complex in the absence or presence of modulators, in 1 ml of HBSS at 4° C. for 2 hours.

Test [1] relates to 0.3 M asialo-COO^− glycopeptide-BSA neoglycoproteins. The test can be described thus: ELISA binding of purified proteins to immobilized carboxylated bovine lung glycans. The conditions noted are these: FIG. 19 or data not shown. On the procedure: In additional ELISA experiments, 96-well plates were coated with 0.3 M asialo-COO^− glycopeptide-BSA neoglycoproteins (250 ng/well) for 4 h at 37° C. (control wells had BSA alone) and blocked with 3% BSA in PBS overnight. The wells were then incubated with purified human annexin I or S100A8/A9 complexes (as appropriate), in 10 mM HUES buffer pH 7.5 containing 150 mM NaCl, 5 mM KCl, 1.2 mM MgCl2 and 1.3 mM CaCl2, in the absence or presence of varying concentrations of 0.3 M asialo-COO^− glycopeptides or 0.3 M asialo-CONHMe-glycopeptides for 2 h at room temperature. This was followed by incubation with anti-bovine annexin I antibody or anti-human S100A8 or anti-S100A9 for 2 h at room temperature. Wells were then washed and incubated with alkaline phosphatase conjugated goat anti-mouse IgG, followed by development with p-nitrophenyl phosphate substrate.
In this Example, experiments conducted to assess amphoterin binding to COO^− glycopeptide coated plates was assayed as described earlier for annexin I and S100 proteins. In addition, bound protein was detected using anti-amphoterin. mAbGB3.1 binding to sRAGE was assessed by first coating sRAGE on microtiter wells for 4 h at 37° C. After blocking with 3% BSA in PBS overnight, wells were incubated with mAbGB3.1 in the presence and absence of COO^−or CONHMe-glycopeptide and developed as described above.

Test [2] has as its system [2-^3H]mannose-labeled CPAE glycoproteins. The experiment in a line: Precipitation of mannose-labeled glycoproteins and cross-binding. Also noted: species or system bovine. On the procedure: Calf pulmonary artery endothelial cells (CPAE) cells were labeled with [2-^3H] mannose at 20 μCi/ml for 24 h in alpha MEM containing 10% fetal bovine serum. Cells were harvested by trypsinization, washed thrice in PBS, and lysed in PBS containing protease inhibitors and 0.5% NP40. Protein-rich lysates were prepared by ultrafiltration on YM10 membranes. Purified S100A8/A9 or annexin I proteins were immobilized on Affigel-10, and mixed with the labeled glycoproteins from CPAE cells in 10 mM HEPES buffer pH 7.5 containing 150 mM NaCl, 5 mM KCl, 1.2 mM MgCl2 and 1.3 mM CaCl2 after preclearing the lysates with BSA-Affigel 10. For immunoprecipitations using mAbGB3.1, lysates were precleared with normal mouse IgG-protein G beads and then incubated with Protein G coupled to mAbGB3.1 IgG in PBS. After overnight incubation at 4° C., the individual pellets were washed free of all unbound label until no more counts appeared in the washes, and the radioactivity associated with the pellets was measured.
For cross-binding, label associated with each pellet was first eluted using high salt (5 M MgCl2, which eluted >70% bound label). The eluates were repeatedly desalted on YM10 membranes and resuspended in the respective buffers. Label eluted from mAbGB3.1 gels was mixed with immobilized S100A8/A9 or annexin I and vice versa. Again, after overnight incubation at 4° C., the individual pellets were washed free of all unbound label and counted. […] In comparison, immobilized annexin I precipitated only about 2-3% of mannose labeled glycoproteins from endothelial cells (data not shown).

Test [3] concerns the target [2-3H]mannose-labeled CPAE glycoproteins. The experiment in a line: precipitation of [2-3H]mannose-labeled CPAE glycoproteins by annexin I on Affigel-10 (data not shown).
Test [4] has as its target cell surface binding sites on human umbilical vein endothelial cells (HUVECs). The experiment in a line: binding of 125I-S100A8/A9 to unactivated HUVECs (data not shown).
Test [5] has as its target [2-3H]mannose-labeled CPAE glycoproteins eluted from mAbGB3.1. The test can be described thus: rebinding to immobilized S100A8/A9 of label eluted from mAbGB3.1 (1,961 cpm added).
The target is the same in test [6]. The test can be described thus: rebinding to immobilized S100A8/A9 of label eluted from mAbGB3.1 (4,951 cpm added).
For test [7], the target named is cell surface binding sites on human umbilical vein endothelial cells (HUVECs). The test can be described thus: competition of 20 nM 125I-S100A8/A9 on PAF-activated HUVECs by unlabeled S100A8/A9.
The target of test [8] is [2-3H]mannose-labeled CPAE glycoproteins. The experiment in a line: precipitation of [2-3H]mannose-labeled CPAE glycoproteins by S100A8/A9 on Affigel-10 (10,286 cpm added).
The target is the same in test [9]. The experiment in a line: precipitation of [2-3H]mannose-labeled CPAE glycoproteins by S100A8/A9 on Affigel-10 (20,386 cpm added).
The target of another test is T1, RAGE (Bos taurus, UniProt Q28173).
T1 construct: from tissue; host or cells: bovine lung (inferred); amphoterin from baculovirus-infected insect cells
T1 sequence (Q28173 23-416): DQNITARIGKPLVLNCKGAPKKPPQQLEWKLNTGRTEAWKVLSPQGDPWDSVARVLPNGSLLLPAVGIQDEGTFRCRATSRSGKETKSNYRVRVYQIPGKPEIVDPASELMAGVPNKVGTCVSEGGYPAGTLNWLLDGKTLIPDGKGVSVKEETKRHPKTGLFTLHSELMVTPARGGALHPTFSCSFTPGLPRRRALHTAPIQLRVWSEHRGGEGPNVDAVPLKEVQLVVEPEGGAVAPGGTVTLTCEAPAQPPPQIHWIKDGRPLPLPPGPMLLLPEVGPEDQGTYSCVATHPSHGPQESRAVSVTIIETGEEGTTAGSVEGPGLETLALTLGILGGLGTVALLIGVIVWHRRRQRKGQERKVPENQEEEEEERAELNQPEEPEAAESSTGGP
The test can be described thus: Binding assays using ^125I amphoterin on immobilized RAGE. Set-up: species or system bovine. On the procedure:
Amphoterin was radioiodinated using Na ^125I and Iodo-Beads Iodinating Reagent (Pierce) to a specific activity of 5×10^3 cpm/ng protein. Saturation binding experiments were done by a slight modification of the method of Hori et al (Hori at al., J. Biol. Chem., 270:25752-61 [1995]). Briefly, purified RAGE was immobilized on microliter wells and the wells blocked with 3% BSA. Wells were incubated at 4° C. overnight with increasing concentrations of ^125I amphoterin in HBSS containing 0.1% BSA in the presence or absence of desialylated carboxylate-enriched (COO^−) or CONHMe bovine lung glycopeptides, or 20 μg/ml mAbGB3.1 or an unrelated anti-carbohydrate monoclonal antibody, or 100 fold excess of unlabeled amphoterin. Binding was also tested on RAGE deglycosylated by PNGase F under non-denaturing conditions. Wells were washed, bound amphoterin was eluted with 2 M NaCl, and radioactivity was measured using a gamma counter. Non-linear regression analysis was done using the GraphPad Prism program.

As to “^125I-S100A8/A9: purified S100A8/A9 radioiodinated using Na^125I”, the “binding on PAF-activated HUVECs” value with HUVECs (4 nM to 80 nM, 4° C. 2 h, FIG. 20 Panel A) is “dose-dependent and saturable binding”. Further, the “binding to unactivated cells, less than to PAF-activated cells” value with HUVECs (data not shown) amounted to 2 fold.
For the molecule “S100A8/A9: heteromeric S100A8/S100A9 complex purified from human neutrophil cytosol”, the “binding to immobilized carboxylated vs neutralized glycans” value in test [1] is reported as “same specificity of binding”. For the same molecule, the “% Bound Radioactivity (mean ± SD)” value is 9% and 8.7 ± 0.5% in [2] (primary binding); 31.5 ± 0.2% in test [2] (primary binding to mAbGB3.1, eluted label rebinding to S100A8/A9); “about one-third” in [2] (primary binding to mAbGB3.1, eluted label rebinding to S100A8/A9, listed as S100A8/A9 complex); 9% in test [2] (primary binding, listed as S100A8/A9 complex). Also, the IC50 with HUVECs (unlabeled ligand, 20 nM labeled complex, PAF-activated HUVECs, FIG. 20 Panel B, read-out: half maximal competition of specific binding of ^125I-S100A8/A9) is approximately 500 nM.

B1: recombinant full-length human annexin I (E. coli BL21(DE3), pET23b) (protein)
chain: MAMVSEFLKQAWFIENEEQEYVQTVKSSKGGPGSAVSPYPTFNPSSDVAALHKAIMVKGVDEATIIDILTKRNNAQRQQIKAAYLQETGKPLDETLKKALTGHLEEVVLALLKTPAQFDADELRAAMKGLGTDEDTLIEILASRTNKEIRDINRVYREELKRDLAKDITSDTSGDFRNALLSLAKGDRSEDFGVNEDLADSDARALYEAGERRKGTDVNVFNTILTTRSYPQLRRVFQKYTKYSKHDMNKVLDLELKGDIEKCLTAIVKCATSKPAFFAEKLHQAMKGVGTRHKALIRIMVSRSEIDMNDIKAFYQKMYGISLCQAILDETKGDYEKILVALCGGN
The molecule B1 showed a % of mannose labeled glycoproteins precipitated in test [3] of 2 to 3%.

B2: purified human S100A8/A9 complex from peripheral blood neutrophils (ligand)
chain 1: MLTELEKALNSIIDVYHKYSLIKGNFHAVYRDDLKKLLETECPQYIRKKGADVWFKELDINTDGAVNFQEFLILVIKMGVAAHKKSHEESHKE
chain 2: TCKMSQLERNIETIINTFHQYSVKLGHPDTLNQGEFKELVRKDLQNFLKKENKNEKVIEHIMEDLDTNADKQLSFEEFIMLMARLTWASHEKMHEGDEGPGHHHKPGLGEGTP
In [4], B2 showed a fold less binding to unactivated than to PAF-activated cells of 2 fold. In addition, the cpm bound to gel came to 615 cpm in [5], 1570 cpm in test [6], 928 cpm in test [8] and 1700 cpm in test [9]. In test [7], this molecule showed an IC50 of 500 nM.

B3: amphoterin: baculovirus expressed rat amphoterin, neurite growth-promoting protein, ligand of RAGE (protein)
chain: GKGDPKKPRGKMSSYAFFVQTCREEHKKKHPDASVNFSEFSKKCSERWKTMSAKEKGKFEDMAKADKARYEREMKTYIPPKGETKKKFKDPNAPKRPPSAFFLFCSEYRPKIKGEHPGLSIGDVAKKLGEMWNNTAADDKQPYEKKAAKLKEKYEKDIAAYRAKGKPDAAKKGVVKAEKSKKKKEEEDDEEDEEDEEEEEEEEDEDEEEDDDDE
On to B3, for which the “binding to immobilized carboxylated vs neutralized glycans” value in [1] is reported as “carboxylate dependent manner”. Besides, the Bmax entry with RAGE (in presence of soluble COO^− glycopeptides) is listed as “approximately 34.7±3.7 fmole/well”; in the test with RAGE (native purified RAGE) it was “approximately 52.7±4.3 fmole/well”.
